Sequences and labels used below:
B1: FIXa-A103N/N105S/K247N/N249S/R318Y/R338E/R403E/E410N (protein)
chain 1: not shown
chain 2: not shown
B2: FIXa-N260S/R318Y/R338E/R403E/E410N (protein)
chain 1: not shown
chain 2: not shown
B3: FIXa-K247N/N249S/R318Y/R403E/E410N (protein)
chain 1: not shown
chain 2: not shown
B4: FIXa-Y155F/R318Y/R338E/N346D/R403E/E410N (protein)
chain 1: not shown
chain 2: not shown
B5: FIXa-Y155F/K228N/K247N/N249S (protein)
chain 1: not shown
chain 2: not shown
B6: FIXa-Y155F/K247N/N249S/R318Y/R403E/E410N (protein)
chain 1: not shown
chain 2: not shown
B7: FIXa-D104N/K106S/K247N/N249S/N260S (protein)
chain 1: not shown
chain 2: not shown
B8: FIXa-R318Y/R338E/T412A (protein)
chain 1: not shown
chain 2: not shown
B9: FIXa-Y155F/K247N/N249S/N260S (protein)
chain 1: not shown
chain 2: not shown
B10: FIXa-D104N/K106S/Y155F/K247N/N249S/N260S (protein)
chain 1: not shown
chain 2: not shown
B11: FIXa-R318Y/R338E/R403E/T412A (protein)
chain 1: not shown
chain 2: not shown
B12: FIXa-Y155F/R338E/R403E/E410N (protein)
chain 1: not shown
chain 2: not shown

These results are taken from patent US11491212.

Chain of Factor X (FX), P00742 (P00742 whole entry, looked up): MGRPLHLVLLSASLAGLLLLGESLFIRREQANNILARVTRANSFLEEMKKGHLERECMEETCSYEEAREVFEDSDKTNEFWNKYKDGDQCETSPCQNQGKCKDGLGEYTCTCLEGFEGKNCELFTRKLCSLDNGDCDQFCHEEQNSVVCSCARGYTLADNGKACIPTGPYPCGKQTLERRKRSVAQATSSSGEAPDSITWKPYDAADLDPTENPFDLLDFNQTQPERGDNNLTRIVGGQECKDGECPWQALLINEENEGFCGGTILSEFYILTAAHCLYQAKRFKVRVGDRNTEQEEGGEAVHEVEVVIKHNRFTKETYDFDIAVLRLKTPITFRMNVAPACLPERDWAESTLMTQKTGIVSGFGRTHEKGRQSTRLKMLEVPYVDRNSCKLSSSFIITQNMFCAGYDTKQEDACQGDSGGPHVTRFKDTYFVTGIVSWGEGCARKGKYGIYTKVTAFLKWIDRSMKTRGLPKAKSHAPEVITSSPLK

The series has as its target Factor X (FX), P00742.
Broadly, the KM is the concentration of substrate that gives half-maximal velocity. Turning to B1, the “% of WT kcat/KM (against Catalyst Biosciences WT FIXa)” value was 324%; the KM came out at 28 nM; the kcat/KM for activation of FX by FIXa in the Xase complex (FVIIIa, PC/PS vesicles, Ca2+), fluorogenic Spectrafluor FXa read-out amounted to 1.5e+08 M⁻¹ s⁻¹.

As for B2, the “% of WT kcat/KM (against Catalyst Biosciences WT FIXa), FX activation in the Xase complex” value (from here on “% of WT kcat/KM … in the Xase complex”) was found to be 117%; the KM was found to be 72.4 nM; the kcat/KM for FX activation by FIXa in the Xase complex (FVIIIa, PC/PS vesicles, Ca2+), indirect fluorogenic Spectrafluor FXa assay was 5.3e+07 M⁻¹ s⁻¹.

Regarding B3, the KM came out at 111 nM.

As to B4, the “% of WT kcat/KM … in the Xase complex” value is 139%; the KM turned out to be 100 nM; the KM (nM) for activation of FX by FIXa in the Xase complex (FVIIIa, PC/PS vesicles, Ca2+), fluorogenic Spectrafluor FXa assay came out at 100 nM; the kcat/KM for FX activation by FIXa in the Xase complex (FVIIIa, PC/PS vesicles, Ca2+), indirect fluorogenic Spectrafluor FXa assay came to 6.2e+07 M⁻¹ s⁻¹.

As for B5, the “% of WT kcat/KM (against Catalyst Biosciences WT FIXa)” value is 115%; the KM was determined as 79.2 nM; the kcat/KM for activation of FX by FIXa in the Xase complex (FVIIIa, PC/PS vesicles, Ca2+), fluorogenic Spectrafluor FXa read-out stood at 5.3e+07 M⁻¹ s⁻¹.

Regarding B6, the KM amounted to 125 nM.

Turning to B7, the “% of WT kcat/KM … in the Xase complex” value stood at 22%; the KM was determined as 61.2 nM; the KM (nM) for activation of FX by FIXa in the Xase complex (FVIIIa, PC/PS vesicles, Ca2+), fluorogenic Spectrafluor FXa assay worked out at 61.2 nM; the kcat/KM for FX activation by FIXa in the Xase complex (FVIIIa, PC/PS vesicles, Ca2+), indirect fluorogenic Spectrafluor FXa assay was 9.8e+06 M⁻¹ s⁻¹.

For B8, the “% of WT kcat/KM … in the Xase complex” value amounted to 661%; the KM worked out at 23.5 nM; the kcat/KM for FX activation by FIXa in the Xase complex (FVIIIa, PC/PS vesicles, Ca2+), indirect fluorogenic Spectrafluor FXa assay was determined as 3e+08 M⁻¹ s⁻¹.

Take B9: the “% of WT kcat/KM … in the Xase complex” value worked out at 43%; the Michaelis-Menten constant (KM) came out at 96.5 nM; the KM (nM) for activation of FX by FIXa in the Xase complex (FVIIIa, PC/PS vesicles, Ca2+), fluorogenic Spectrafluor FXa assay came out at 96.5 nM; the kcat/KM for FX activation by FIXa in the Xase complex (FVIIIa, PC/PS vesicles, Ca2+), indirect fluorogenic Spectrafluor FXa assay is 1.9e+07 M⁻¹ s⁻¹.

For B10, the “% of WT kcat/KM … in the Xase complex” value was 18%; the KM stood at 68.5 nM; the KM (nM) for activation of FX by FIXa in the Xase complex (FVIIIa, PC/PS vesicles, Ca2+), fluorogenic Spectrafluor FXa assay is 68.5 nM; the kcat/KM for FX activation by FIXa in the Xase complex (FVIIIa, PC/PS vesicles, Ca2+), indirect fluorogenic Spectrafluor FXa assay turned out to be 8.2e+06 M⁻¹ s⁻¹.

For the protein B11, the KM was found to be 67.5 nM.

With B12, the KM was found to be 33.6 nM.
